Data: PMC11488477, “TDP-43 Amyloid Fibril Formation via Phase Separation-Related and -Unrelated Pathways” (ACS Chemical Neuroscience, 2024)

Biological target: the molecule itself
Assay: thioflavin T fluorescence + negative-stain TEM; protein alone in buffer with ThT, 20 uM (higher at pH 4 and 5), pH 4-7, 0-300 mM NaCl, 1% DMSO, 96-well plate, 30 °C; long-period assays (Figure 5) incubated without shaking; self-assembly into amyloid fibrils

B1: C-terminal domain of TDP-43 (residues 266-414), wild type (domain or fragment, UniProt Q13148 266-414, looked up)
chain: SNRQLERSGRFGGNPGGFGNQGGFGNSRGGGAGLGNNQGSNMGGGMNFGAFSINPAMMAAAQAALQSSWGMMGMLASQQNQSGPSGNNQNQGNMQREPNQAFGSGNNSYSGSNSGAAIGWGSASNAGSGSGFNGGFGSSMDSKSSGWGM
notes: TDP-43, C-terminal domain (intrinsically disordered region), residues 266-414; UniProt entry Q13148; also called TDP-43's IDR; wild-type TDP-43
binding result: binds
